Source: doi:10.1101/2021.12.21.473719

Target: POPDC1 tagged with Venus (YFP acceptor for FLIM-FRET with TREK-1) (mouse) (UniProt Q9ES83)
Test: FRET or BRET

POPDC1 tagged with Venus (YFP acceptor for FLIM-FRET with TREK-1) (mouse), sequence (Q9ES83 whole entry): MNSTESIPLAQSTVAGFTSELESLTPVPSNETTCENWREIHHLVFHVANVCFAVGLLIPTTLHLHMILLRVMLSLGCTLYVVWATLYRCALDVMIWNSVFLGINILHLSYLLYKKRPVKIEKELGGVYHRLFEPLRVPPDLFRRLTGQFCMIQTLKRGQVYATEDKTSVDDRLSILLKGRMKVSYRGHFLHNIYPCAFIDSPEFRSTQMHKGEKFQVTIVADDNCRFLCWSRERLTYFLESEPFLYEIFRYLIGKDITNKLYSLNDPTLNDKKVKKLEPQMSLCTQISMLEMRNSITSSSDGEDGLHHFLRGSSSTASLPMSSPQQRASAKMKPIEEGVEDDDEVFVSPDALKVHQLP
Cerulean-TREK-1 (natural protein), sequence (O95069 whole entry): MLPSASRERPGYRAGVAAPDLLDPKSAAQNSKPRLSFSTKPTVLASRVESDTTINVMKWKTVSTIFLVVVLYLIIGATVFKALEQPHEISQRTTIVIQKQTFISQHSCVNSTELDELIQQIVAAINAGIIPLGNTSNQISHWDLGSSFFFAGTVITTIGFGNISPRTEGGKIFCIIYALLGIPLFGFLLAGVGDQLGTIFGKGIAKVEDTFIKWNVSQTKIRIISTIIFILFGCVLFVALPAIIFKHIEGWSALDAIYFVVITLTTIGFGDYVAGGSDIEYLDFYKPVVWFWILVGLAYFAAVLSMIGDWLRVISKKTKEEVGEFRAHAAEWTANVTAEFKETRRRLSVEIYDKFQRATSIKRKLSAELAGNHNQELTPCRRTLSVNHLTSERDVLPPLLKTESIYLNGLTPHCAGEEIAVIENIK

FRET efficiency: 18%
Substance: Cerulean-TREK-1 (natural protein)
